From PMC3406085

Biological target: Merkel cell polyomavirus (MCPyV) major capsid protein VP1, amino acids 38-320, unassembled pentamer (Merkel cell polyomavirus (w162))
Test: crystal structure; unassembled VP1 pentamers, native and soaked with DSL, 3SLN or GD1a; hanging drop at 20°C, 100 mM sodium cacodylate pH 6.5, 6% PEG 3,350, 300 mM magnesium chloride; four VP1 pentamers in the asymmetric unit

Substance: Merkel cell polyomavirus (MCPyV) major capsid protein VP1, amino acids 38-320, unassembled pentamer (domain or fragment)
- stoichiometry N: 5
